Measured values published in publication PMC3260417 (Bioorganic Chemistry, 2011).

Columns and labels:
[1] = biological target: 3-deoxy-D-arabino-heptulosonate 7-phosphate synthase from Aeropyrum pernix (Aeropyrum pernix); experiment: SEC
[2] = biological target: DAH7PS^Ap (DAHPS^Ap; 3-deoxy-D-arabino-heptulosonate 7-phosphate synthase) (Aeropyrum pernix, UniProt Q9YEJ7); experiment: initial rates, discontinuous periodate-thiobarbituric acid; format: biochemical; settings: read-out: apparent Km; 3 mM PEP (saturating), pH 7.0, 60 °C; enzyme as isolated (Zn)

| Molecule | stoichiometry N [1] | Km [2] |
| --- | --- | --- |
| 3-deoxy-D-arabino-heptulosonate 7-phosphate synthase from Aeropyrum pernix (enzyme) | 2 | – |
| O=C[C@H](O)[C@H](O)COP(=O)(O)O [E4P] | – | 280 ± 20 µM |
